Results reported in patent US20240084330A1 (BROAD INSTITUTE, published 2024).

B1: MmPNMA3 (mouse PNMA3 produced in E. coli, tags removed) (other, UniProt Q8JZW8 1-466, looked up)
chain: MPLNLLQDWCRGEHLNTQRSMLILGIPEDCSEDEFEETLHEALKHLGRYRIIGRMFRREENAQAFLVELARDFDYALVPREIEGKGGPWEVVVKPPHSDDEFLNRLNHFLEEERRTVSDMNRVLGTHSNHSPTKTTISADFWVWAQTLGAVMQPLLEQMLYRELRVFSGNTISIPGLLAFDSWLEHTTEMLQMWQVPEVEKRRRLMECLRGPALQVVNVLRANNAAITVKECLEALRQVFGSVDNRKIAQLKFCKAYQEPGEKVSSFVVRLETLLQKALEKNAISRKNVNQTRLKRILGGAILSAKLREKLKMLKQRRRPPGFLALVKLFREEEEEWEATRGSERSCYEGLELGPSPSNIGSEERELFVPAFGSVLEERPYQGSRRRRHRRRGQHRKGGVPRDDSQGTRKQNYDTFCYSCGEDGHIRVHCFNPSNRTLVKQKRQAAMEKGNRSWAWEKSHPKPKTK
notes: Cloned from mouse cDNA into a TwinStrep-SUMO backbone; tags cleaved with SUMO protease before size exclusion
B2: MmMOAP1 (mouse MOAP1 produced in E. coli, tags removed) (other, UniProt Q9ERH6 1-352, looked up)
chain: MTLRLLEDWCRGMDMNPRKALLVAGIPPTCGVADIEEALQAGLAPLGEHRLLGRMFRRDENKNVALIGLTVETGSALVPKEIPAKGGVWRVIFKPPDTDSDFLCRLNEFLKGEGMTMGELTRVLGNRNDPLGLDPGIMIPEIRAPMLAQALNEALKPTLQYLRYKKLSVFSGRDPPGPGEEEFESWMFHTSQVMKTWQVSDVEKRRRLIESLRGPAFEIIRVLKINNPFITVAECLKTLETIFGIIDNPRALQVKYLTTYQKTDEKLSAYVLRLEPLLQKLVQKGAIEKEVVNQARLDQVIAGAVHKSVRRELGLPEGSPAPGLLQLLTLIKDKEAEEEEVLLQAELEGYCT
notes: Cloned from mouse cDNA into a TwinStrep-SUMO backbone; tags cleaved with SUMO protease before size exclusion; also called modulator of apoptosis 1; Pnma4
B3: MmPNMA5 (mouse PNMA5 produced in E. coli, tags removed) (other, UniProt Q5DTT8 1-618, looked up)
chain: MAVALLDDWCKGMDLDPKKAVLIVGIPVQYTEAAINDALKEGLPPLCAYKVIGRMFRREDEAKAVLIELPEVVDYTMMPTHIPAEGGAWEVVVKPRSPDDEFMNKLIYFLRDEGRRIVDVAKALGFSTVPTGKIELKNLDQDKPKGLKSLCNNSTCYKKLKVFSGSPFPGPGEESFETWLEEVTELMQLWQVSEREKKQCLLESLRGSALSIMQALWTSNDSLTVEQCLKALKHIFGNKEDSKVLQFRFLQSSQKPAEKVSDYLLRLEPLLQKAVQQSPLSAHSADSIRLKHVLSQVSMTTGLRGKLSLLDQQGCPPTFLELMKLTRDEEEWESTVVVEEQEQVRRDSSACEAANEVVTQAEDSREVSTQTTGEEMTSVKRRRLLWRHSAGEEGQRKESGFWAESEPDEQKPYVRAQESGNERGAWAVSHPNPKEIEAQDSQEFLPVAGNRDTLTKSWGSPDKGTGDMSVAEGQQGQGKAPNFLLARNDPNKQEQIPHSSVTTKWQDRGECQRLKWGASMITRPQGNPDRSWDTSGSQDGEDGCSELRMPTGTEAAQGVEEPATGLSWAEDTSAWEQARLGRETVPRRGGRRIQPVFRIIYTALGEPHEGSTLESFRE
notes: as for B1

Target: the molecule itself
Test: self-assembly of E. coli-produced protein; size exclusion and electron microscopy

Binding result, binds:
B1, B2, B3
